This note sets out measurements from patent US20130012432A1 (Novo Nordisk, published 2013).

To fix the notation:
B1: Ac-c[Orn-His-D-Phe-Arg-Trp-Glu]-Pro-Ser-Ser-Ser-Glu-Glu-Ser-Ser-Lys({2-[2-(16-carboxyhexadecanoylamino)ethoxy]ethoxy}acetyl)-NH2 (peptide)
peptide: Ac-[Orn]H[dF]RWEPSSSEESSK([AEEA-C17 diacid])-NH2
modifications: lactam 1-6
SMILES: CC(=O)N[C@H]1CCCNC(=O)CC[C@@H](C(=O)N2CCC[C@H]2C(=O)N[C@@H](CO)C(=O)N[C@@H](CO)C(=O)N[C@@H](CO)C(=O)N[C@@H](CCC(=O)O)C(=O)N[C@@H](CCC(=O)O)C(=O)N[C@@H](CO)C(=O)N[C@@H](CO)C(=O)N[C@@H](CCCCNC(=O)COCCOCCNC(=O)CCCCCCCCCCCCCCCC(=O)O)C(N)=O)NC(=O)[C@H](Cc2c[nH]c3ccccc23)NC(=O)[C@H](CCCNC(=N)N)NC(=O)[C@@H](Cc2ccccc2)NC(=O)[C@H](Cc2c[nH]cn2)NC1=O
B2: Ac-c[Orn-His-D-Phe-Arg-Trp-Glu]-Pro-Ser-Lys-Glu-Glu-Ser-Ser-Glu-Lys({2-[2-(16-carboxyhexadecanoylamino)ethoxy]ethoxy}acetyl)-NH2 (peptide)
peptide: Ac-[Orn]H[dF]RWEPSKEESSEK([AEEA-C17 diacid])-NH2
modifications: lactam 1-6
SMILES: CC(=O)N[C@H]1CCCNC(=O)CC[C@@H](C(=O)N2CCC[C@H]2C(=O)N[C@@H](CO)C(=O)N[C@@H](CCCCN)C(=O)N[C@@H](CCC(=O)O)C(=O)N[C@@H](CCC(=O)O)C(=O)N[C@@H](CO)C(=O)N[C@@H](CO)C(=O)N[C@@H](CCC(=O)O)C(=O)N[C@@H](CCCCNC(=O)COCCOCCNC(=O)CCCCCCCCCCCCCCCC(=O)O)C(N)=O)NC(=O)[C@H](Cc2c[nH]c3ccccc23)NC(=O)[C@H](CCCNC(=N)N)NC(=O)[C@@H](Cc2ccccc2)NC(=O)[C@H](Cc2c[nH]cn2)NC1=O
B3: Ac-c[Lys-His-D-Phe-Arg-Trp-Asp]-Pro-Pro-Arg-Asp-Lys(biscarboxymethyl)-Lys[(2-{2-[16-(tetrazol-5-yl)hexadecanoylamino]ethoxy}ethoxy)acetyl]-NH2 (peptide)
peptide: Ac-KH[dF]RWDPPRD[Lys(CH2CO2H)2]K([AEEA-Palmitoyl(16-(5-tetrazolyl))])-NH2
modifications: lactam 1-6
SMILES: CC(=O)N[C@H]1CCCCNC(=O)C[C@@H](C(=O)N2CCC[C@H]2C(=O)N2CCC[C@H]2C(=O)N[C@@H](CCCNC(=N)N)C(=O)N[C@@H](CC(=O)O)C(=O)N[C@@H](CCCCN(CC(=O)O)CC(=O)O)C(=O)N[C@@H](CCCCNC(=O)COCCOCCNC(=O)CCCCCCCCCCCCCCCc2nnn[nH]2)C(N)=O)NC(=O)[C@H](Cc2c[nH]c3ccccc23)NC(=O)[C@H](CCCNC(=N)N)NC(=O)[C@@H](Cc2ccccc2)NC(=O)[C@H](Cc2c[nH]cn2)NC1=O
B4: Ac-c[Lys-His-D-Phe-Arg-Trp-Glu]-Pro-Pro-Arg-Asp-Lys(biscarboxymethyl)-Lys[(2-{2-[16-(tetrazol-5-yl)hexadecanoylamino]ethoxy}ethoxy)acetyl]-NH2 (peptide)
peptide: Ac-KH[dF]RWEPPRD[Lys(CH2CO2H)2]K([AEEA-Palmitoyl(16-(5-tetrazolyl))])-NH2
modifications: lactam 1-6
SMILES: CC(=O)N[C@H]1CCCCNC(=O)CC[C@@H](C(=O)N2CCC[C@H]2C(=O)N2CCC[C@H]2C(=O)N[C@@H](CCCNC(=N)N)C(=O)N[C@@H](CC(=O)O)C(=O)N[C@@H](CCCCN(CC(=O)O)CC(=O)O)C(=O)N[C@@H](CCCCNC(=O)COCCOCCNC(=O)CCCCCCCCCCCCCCCc2nnn[nH]2)C(N)=O)NC(=O)[C@H](Cc2c[nH]c3ccccc23)NC(=O)[C@H](CCCNC(=N)N)NC(=O)[C@@H](Cc2ccccc2)NC(=O)[C@H](Cc2c[nH]cn2)NC1=O
B5: Ac-c[homoCys-His-D-Phe-Arg-Trp-Cys]-Pro-Pro-Lys-Asp-Dap(BCMA)-Lys({2-[2-(13-carboxytridecanoylamino)ethoxy]ethoxy}acetyl)-NH2 (peptide)
peptide: Ac-[hCys]H[dF]RWCPPKD[Dap](NTA)K([AEEA-C14 diacid])-NH2
modifications: disulfide 1-6
SMILES: CC(=O)N[C@H]1CCSSC[C@@H](C(=O)N2CCC[C@H]2C(=O)N2CCC[C@H]2C(=O)N[C@@H](CCCCN)C(=O)N[C@@H](CC(=O)O)C(=O)N[C@@H](CNC(=O)CN(CC(=O)O)CC(=O)O)C(=O)N[C@@H](CCCCNC(=O)COCCOCCNC(=O)CCCCCCCCCCCCC(=O)O)C(N)=O)NC(=O)[C@H](Cc2c[nH]c3ccccc23)NC(=O)[C@H](CCCNC(=N)N)NC(=O)[C@@H](Cc2ccccc2)NC(=O)[C@H](Cc2c[nH]cn2)NC1=O

Positions of bridges follow the written chain, without caps; N, C: chain ends. Non-standard residues stand in square brackets, D forms with d. Groups on a side chain read outwards from the residue. Primed or numbered codes have the meaning given here. *: point of attachment. X6 = (2-(2-(17-carboxyheptadecanoylamino)ethoxy)ethoxy)acetyl, O=C(O)CCCCCCCCCCCCCCCCC(=O)NCCOCCOCC(=O)*; X3 = (2-(2-(15-carboxypentadecanoylamino)ethoxy)ethoxy)acetyl, O=C(O)CCCCCCCCCCCCCCC(=O)NCCOCCOCC(=O)*; biscarboxymethyl = Lys(biscarboxymethyl) = Nepsilon-bis(carboxymethyl)-L-lysine; Palmitoyl(16-(5-tetrazolyl)) = O=C(CCCCCCCCCCCCCCCc1nnn[nH]1)*; biscarboxymethyl(3) = Nepsilon-bis(carboxymethyl) on Lys; Lys(CH2CO2H)2 = N[C@@H](CCCCN(CC(=O)O)CC(=O)O)C(=O)O; C17 diacid = O=C(O)CCCCCCCCCCCCCCCC(=O)*; C14 diacid = O=C(O)CCCCCCCCCCCCC(=O)*; Hyp = O=C(O)[C@@H]1C[C@@H](O)CN1; NTA = O=C(O)CN(CC(=O)O)CC(=O)*; hCys = N[C@@H](CCS)C(=O)O; Orn = NCCC[C@H](N)C(=O)O; Dap = NC[C@H](N)C(=O)O; AEEA = NCCOCCOCC(=O)O

T1 sequence (P32245 whole entry): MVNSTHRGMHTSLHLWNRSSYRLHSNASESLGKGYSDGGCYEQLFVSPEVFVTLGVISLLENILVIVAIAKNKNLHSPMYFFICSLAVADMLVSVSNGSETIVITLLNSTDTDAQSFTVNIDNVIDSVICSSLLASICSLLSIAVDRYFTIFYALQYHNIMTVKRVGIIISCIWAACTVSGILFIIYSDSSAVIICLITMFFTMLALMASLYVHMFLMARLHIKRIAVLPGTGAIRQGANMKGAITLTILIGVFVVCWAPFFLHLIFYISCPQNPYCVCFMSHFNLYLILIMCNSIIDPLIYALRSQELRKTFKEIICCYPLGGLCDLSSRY

The assay has as its target T1, human MC4 receptor (human, UniProt P32245 1-332).
T1 construct: whole, on cells; Assayed as membranes of BHK cells stably expressing the receptor; also called melanocortin receptor subtype 4; melanocortin receptor 4
As to the kind of experiment: 125I-NDP-α-MSH displacement, BHK-human MC4 membranes (Assay V).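 Also: Filter-retained radioactivity read by gamma counting, with affinity obtained through non-linear regression fitting of the binding curves.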
By Ki is commonly meant the equilibrium dissociation constant of an inhibitor or competing ligand from its target. A high value points to weaker binding. Take Ac-EH[dF]RW[Orn]PPDK(biscarboxymethyl)K(X3)-NH2 (lactam 1-6): the affinity corresponds to a Ki of 64 nM. This lies in the double-digit nanomolar range.
Consider Ac-EH[dF]RW[Orn]PPDK(biscarboxymethyl)K(X6)-NH2 (lactam 1-6), for which the affinity, expressed as Ki, was 8.6 nM.
In turn, Ac-EH[dF]RW[Dap][Hyp][Hyp]RDK(biscarboxymethyl(3))K([AEEA-Palmitoyl(16-(5-tetrazolyl))])-NH2 (lactam 1-6) gave a Ki of 17 nM.
On to B1, for which the affinity corresponds to a Ki of 25 nM.
The value for B2 was 38 nM; that for B3 was 3.87 nM.
Take B4: the Ki stood at 179 nM.
On to B5, for which the Ki was found to be 4.2 nM.
With Ac-EQ[dF]RW[Orn]PPRDK(biscarboxymethyl(3))K([AEEA-Palmitoyl(16-(5-tetrazolyl))])-NH2 (lactam 1-6) the figure was 58 nM.
